Measurements from patent publication US8563695B2, “Antibodies that bind β2” (Genentech, Inc., priority 2007, dated 2013).
One block for each molecule: values may come before it.

Experiments:
[1] = system: SW620 cells; experiment: Chemical inhibition of Notch signaling: E-cadherin staining of β2 ECD-treated SW620 cells; format: cell-based, human
Procedure: Vimentin and actin cytoskeleton (rhodamine-phalloidin): cells were fixed in 4% paraformaldehyde for 20 minutes at room temperature and permeabilzed with 0.05% saponin for 5 minutes at room temperature. For β2, REST, cleaved-Notch1 NICD and E-cadherin staining: cells were fixed in methanol at 4° C. for 2 minutes. Primary antibody incubation was at room temperature for 1 hour (for vimentin staining), or for 15 minutes (for rhodamine-phalloidin staining) or at 37° C. for 1 hour (for β2, REST, cleaved-Notch1 NICD and E-cadherin staining). Secondary antibody incubation was at room temperature for 30 minutes. […]
Images were converted from Photoshop format to Tif in Photoshop CS2 (version 9.0.2, Adobe; San Jose, Calif.). […] Typically, 5 independent regions were analyzed and combined for each analysis.
Activation of Notch signaling requires cleavage of the receptor by both an ADAM protease and gamma-secretase to release the Notch intracellular domain (NICD). […] SW620 cells were mixed with DMSO (vehicle control) or the specific gamma-secretase inhibitor DAPT (N—[N-(3,5-difluorophenylacetyl-L-alanine)]-S-phenylglycine t-butylester) at 500 nM in DMSO, treated with β2 ECD in conditioned media, and analyzed for loss of E-cadherin. […]

[2] = system: SW620 cells; experiment: Stimulation of SW620 cells with Notch ligands (co-culture or plate-bound) for EMT induction; format: cell-based, human; settings: exogenous ligand in trans by co-culture or plate-bound; data not shown
[3] = system: naïve CHO cells, MDCK cells, HUVEC (endothelial), or tumor cell lines NCI-H226, SW620, SW480, and PC-3; experiment: β2 ECD induced phenotype assay (actin cytoskeleton, morphology); format: cell-based; settings: conditioned media containing β2 ECD, 48-72 hours
Procedure: (§1) Vimentin and actin cytoskeleton (rhodamine-phalloidin): cells were fixed in 4% paraformaldehyde for 20 minutes at room temperature and permeabilzed with 0.05% saponin for 5 minutes at room temperature. For β2, REST, cleaved-Notch1 NICD and E-cadherin staining: cells were fixed in methanol at 4° C. for 2 minutes. Primary antibody incubation was at room temperature for 1 hour (for vimentin staining), or for 15 minutes (for rhodamine-phalloidin staining) or at 37° C. for 1 hour (for β2, REST, cleaved-Notch1 NICD and E-cadherin staining). Secondary antibody incubation was at room temperature for 30 minutes. Antibodies used were as following: α-ankyrin monoclonal antibody (Chemincon International, Temecula, Calif.); α-vimentin monoclonal antibody (Sigma-Aldrich, St. Louis, Mo.); rhodamine-phalloidin (Molecular Probes, Eugene, Oreg.), α-REST polyclonal antibody (Upstate, Lake Placid, N.Y.), α-E-cadherin monoclonal antibody (Invitrogen, Carlsbad, Calif.), α-Notch1 (Val1744 peptide, detects both intact and cleaved Notch1 NICD) (Cell Signaling, Danvers, Mass.) or α-β2 monoclonal antibody (Genentech, Inc.). Secondary antibodies were as follows: Cy3-conjugated rabbit α-mouse IgG or Cy3-conjugated donkey α-rabbit IgG (Jackson Lab, Bar Harbor, Me.). Slides were mounted with Vectashield mounting media with DAPI (4′,6-diamidino-2-phenylindole) (Vector Lab, Burlingame, Calif.). […]

[4] = system: HEK293 cells; experiment: β2 ECD induced phenotype assay in HEK293; format: cell-based; settings: HEK293, do not express Notch1; FIG. 11A
Procedure: as §1

[5] = system: SW620 cells; experiment: Migration assay of SW620 cells treated with β2 ECD; format: cell-based, human; settings: β2 ECD in conditioned media, 0.1% FBS, 18 hours; p=0.0009
Procedure: Migration assays were performed using the HTS FluoroBlock Multiwell insert system with […] (BD Biosciences, Bedford, Mass.). 10^5 cells/well were seeded into the upper wells and FBS was added to the bottom wells. After 18 hr, cells that migrated to the other side of the trans-well membrane were stained in 10 um YO-PRO-1 iodide (Invitrogen, Eugene, Oreg.) and quantitated using the fluorescence plate reader Spectra Max GeminiEM (Molecular Devices, Sunnyvale, Calif.).

[6] = system: CHO cells; experiment: Methotrexate resistance in CHO cells (trypan blue); format: cell-based, Chinese Hamster; settings: 200 nM methotrexate for 48 hours; 60% of control-treated cells died; p=0.01
Procedure: Resistance to starvation: SW620 cells were seeded into 6 well plates at 25% confluence in complete media overnight. This media was replaced the next morning with media lacking FBS. For the assay, cells were detached using trypsin, washed, and stained in 0.4% Trypan Blue (Invitrogen, Carlsbad, Calif.). Total cells and dead cells were counted using a hemocytometer. Assays were performed in triplicate. Doxorubicin resistance: 2×10^4 SW620 cells were seeded in 96 well clear bottom black plates (Corning Inc., Corning, N.Y.) with serial dilutions of doxorubicin hydrochloride (Sigma-Aldrich, St. Louis, Mo.) and incubated for 5 days. Cell viability was measured by using Cell Titer Glo Luminescent Cell Viability Kit (Promega, Madison, Wis.). Luminescence was quantified using an Envision 2103 multilabel reader (PerkinElmer, Finland). Methotrexate resistance: 5×10^5 CHO cells were seeded in 6-well plates with β2 ECD in conditioned medium or control conditioned medium containing 200 nm methotrexate (Genentech Inc.). Cells were detached from the plate and stained with Trypan Blue 0.4% (Invitrogen, Carlsbad, Calif.) as described.

[7] = system: SW620 cells; experiment: E-cadherin and vimentin staining of SW620 cells treated with β2 ECD; format: cell-based, human
Procedure: as §1

[8] = system: Twist1 and HES1 transcript; experiment: Transcript expression (microarray, RT-PCR) in SW620 cells treated with β2 ECD; format: cell-based, human
Procedure: HES1 and Twist1 transcript expression from 0-72 hours in SW620 cells treated β2 ECD in conditioned medium. RNA was extracted from cells at 0, 6, 18, 24, 48, and 72 hour timepoints and microarray analysis performed on Agilent Whole Human Genome microarrays versus a universal reference RNA. Log ratio (Y-axis) is plotted against time in hours (X-axis). Transcript data for 2 independent HES1 oligonucleotide probe sequences and for Twist1 are shown.
RT-PCR analysis of Twist1 transcript expression at 0, 6, and 18 hr timepoints in SW620 cells treated with β2 ECD. Twist1 expression was normalized to housekeeping gene RPL19.

[9] = target: T1, Notch1 ECD (EGF repeats 6-36) (Homo sapiens, UniProt P46531); experiment: Direct binding of β2 ECD and Notch1 ECD (Ni-NTA pull-down, immunoblot); settings: approximately 1 nM Notch1 ECD and 20 nM β2 ECD; vs control conditioned media with irrelevant histidine-tagged protein
T1 construct: Notch1 ECD region containing the majority of the EGF repeat region (repeats 6-36); FLAG (C)
T1 sequence (P46531 218-1426 limits assumed): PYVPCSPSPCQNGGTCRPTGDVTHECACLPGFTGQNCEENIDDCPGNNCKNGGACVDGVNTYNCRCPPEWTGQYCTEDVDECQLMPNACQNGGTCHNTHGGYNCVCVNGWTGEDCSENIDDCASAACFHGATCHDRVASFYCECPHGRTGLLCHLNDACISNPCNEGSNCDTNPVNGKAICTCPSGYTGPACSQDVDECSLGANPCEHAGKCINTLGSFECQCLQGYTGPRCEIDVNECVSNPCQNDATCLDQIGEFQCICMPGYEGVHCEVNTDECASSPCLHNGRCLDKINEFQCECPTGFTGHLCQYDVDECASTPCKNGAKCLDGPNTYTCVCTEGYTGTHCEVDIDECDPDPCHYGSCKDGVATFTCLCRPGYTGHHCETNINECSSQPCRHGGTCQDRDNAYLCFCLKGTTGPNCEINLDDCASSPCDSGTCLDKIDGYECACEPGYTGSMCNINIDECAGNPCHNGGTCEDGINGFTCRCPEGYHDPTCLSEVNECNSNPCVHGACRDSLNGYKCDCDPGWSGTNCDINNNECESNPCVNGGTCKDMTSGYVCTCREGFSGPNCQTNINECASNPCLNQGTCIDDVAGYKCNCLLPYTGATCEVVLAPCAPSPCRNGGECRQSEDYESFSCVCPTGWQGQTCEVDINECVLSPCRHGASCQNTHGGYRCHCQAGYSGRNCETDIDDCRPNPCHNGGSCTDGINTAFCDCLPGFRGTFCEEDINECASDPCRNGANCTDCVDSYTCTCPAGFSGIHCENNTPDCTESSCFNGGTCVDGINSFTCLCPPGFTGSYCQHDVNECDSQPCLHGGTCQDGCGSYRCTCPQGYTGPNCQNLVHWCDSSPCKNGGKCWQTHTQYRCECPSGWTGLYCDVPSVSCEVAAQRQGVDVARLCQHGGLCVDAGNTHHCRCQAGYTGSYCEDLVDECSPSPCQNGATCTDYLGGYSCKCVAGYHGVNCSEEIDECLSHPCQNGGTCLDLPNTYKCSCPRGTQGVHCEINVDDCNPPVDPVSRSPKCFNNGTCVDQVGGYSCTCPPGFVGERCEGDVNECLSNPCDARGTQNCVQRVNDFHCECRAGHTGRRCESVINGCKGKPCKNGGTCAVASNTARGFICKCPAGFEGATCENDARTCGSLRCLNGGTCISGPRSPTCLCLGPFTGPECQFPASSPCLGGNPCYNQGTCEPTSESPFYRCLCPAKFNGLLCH
Procedure: Immunoprecipitation: cells were removed from culture plates using 5 mm EDTA and lysed in TBS buffer containing 0.5% NP-40, EDTA-free protease inhibitor (Roche Diagnostics, Indianapolis, Ind.) and 1 mm PMSF. The cell lysate was incubated with pre-saturated protein G-agarose (Roche Diagnostics, Indianapolis, Ind.) at 4° C. for 1.5 hour followed by incubation with α-β2 monoclonal antibody at 4° C. for 2 hours. This cell lysate and antibody mixture was then incubated with pre-saturated protein G-agarose at 4° C. overnight. The agarose was collected and proteins were eluted in Tris-Glycine gel loading buffer (Invitrogen, Carlsbad, Calif.) for immunoblot analysis. Direct binding: conditioned media was collected as described above, incubated with FLAG-tagged Notch1 ECD:6-36 (5 μg) in 15 ml for 2 hours at room temperature with shaking 50 μl of Ni-NTA agarose bead slurry (Qiagen) was added with incubation for 2 hours at room temperature with shaking. Ni-NTA beads were collected by centrifugation and washed 3 times with PBS. Alternatively, conditioned media was treated with Ni-NTA beads to enrich for β2 and the resulting slurry incubated with Notch1 ECD:6-36 (5 μg) in 1 ml PBS and incubated and washed as described. Samples were eluted into 2× loading buffer. […]

[10] = target: T2, Notch1 ECD fragment containing EGF repeats 10-21 (Homo sapiens, UniProt P46531); experiment: Direct binding of β2 ECD and Notch1 ECD fragment EGF 10-21; settings: α-FLAG immunoblot
T2 construct: purified fragments of the Notch1 ECD, containing either EGF repeats 10-21 or 22-33; FLAG (C)
T2 sequence (P46531 372-827 limits assumed): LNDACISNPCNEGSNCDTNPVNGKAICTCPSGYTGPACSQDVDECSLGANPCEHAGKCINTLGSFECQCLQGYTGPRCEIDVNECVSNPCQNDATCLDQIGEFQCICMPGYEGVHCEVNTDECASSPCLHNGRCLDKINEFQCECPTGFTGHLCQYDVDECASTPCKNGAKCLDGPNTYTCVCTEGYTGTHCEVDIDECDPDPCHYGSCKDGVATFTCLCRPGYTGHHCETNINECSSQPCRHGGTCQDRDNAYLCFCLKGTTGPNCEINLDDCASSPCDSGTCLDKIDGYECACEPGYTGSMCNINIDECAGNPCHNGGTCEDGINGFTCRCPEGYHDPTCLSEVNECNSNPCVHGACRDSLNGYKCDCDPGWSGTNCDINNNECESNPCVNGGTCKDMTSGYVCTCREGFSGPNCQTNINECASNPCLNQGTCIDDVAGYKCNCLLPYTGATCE

[11] = target: T3, Notch1 ECD fragment containing EGF repeats 22-33 (Homo sapiens, UniProt P46531); experiment: Direct binding of β2 ECD and Notch1 ECD fragment EGF 22-33; settings: α-FLAG immunoblot
T3 construct: purified fragments of the Notch1 ECD, containing either EGF repeats 10-21 or 22-33; FLAG (C)
T3 sequence (P46531 829-1305): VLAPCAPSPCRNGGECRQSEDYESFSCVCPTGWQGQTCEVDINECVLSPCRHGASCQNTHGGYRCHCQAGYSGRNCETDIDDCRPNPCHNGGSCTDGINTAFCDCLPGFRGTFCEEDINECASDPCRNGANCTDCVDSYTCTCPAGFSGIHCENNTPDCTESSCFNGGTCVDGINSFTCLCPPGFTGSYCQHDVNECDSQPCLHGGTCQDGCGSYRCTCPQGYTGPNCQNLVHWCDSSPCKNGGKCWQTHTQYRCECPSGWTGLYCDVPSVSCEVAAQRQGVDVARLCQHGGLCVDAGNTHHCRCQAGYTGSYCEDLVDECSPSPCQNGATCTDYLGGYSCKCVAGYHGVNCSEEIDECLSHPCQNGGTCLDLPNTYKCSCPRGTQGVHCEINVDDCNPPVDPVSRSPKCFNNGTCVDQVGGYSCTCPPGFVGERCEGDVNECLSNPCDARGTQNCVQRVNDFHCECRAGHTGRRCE

[12] = system: Notch1 NICD; experiment: Translocation of Notch1 NICD to nucleus (confocal immunofluorescence); format: cell-based, human; settings: SW620 cells 6 hours after treatment with β2 ECD in conditioned media; 100 um Lactacystin
Procedure: as §1, with “Inc.).” for “Inc.). Secondary antibodies were as follows: Cy3-conjugated rabbit α-mouse IgG or Cy3-conjugated donkey α-rabbit IgG (Jackson Lab, Bar Harbor, Me.). Slides were mounted with Vectashield mounting media with DAPI (4′,6-diamidino-2-phenylindole) (Vector Lab, Burlingame, Calif.).”
Activation of Notch1 by ligands results in cleavage to release the NICD, which translocates to the nucleus, and in concert with other proteins, directly regulates Notch target gene transcription. We analyzed whether nuclear NICD could be detected in cells in response to β2. […]

Molecule: C[C@H](NC(=O)Cc1cc(F)cc(F)c1)C(=O)NC(C(=O)OC(C)(C)C)c1ccccc1 (stereo partly drawn) [DAPT, N—[N-(3,5-difluorophenylacetyl-L-alanine)]-S-phenylglycine t-butylester]
E-cadherin staining ([1]; DAPT 500 nM in DMSO, SW620 cells treated with β2 ECD in conditioned media): remained E-cadherin positive | E-cadherin levels, quantitative analysis of staining ([1]; DAPT-treated vs DMSO, β2-ECD treated cells, p=0.00001): significantly different

Molecule: Jagged1: Notch ligand of the Jagged family, added exogenously (co-culture or plate-bound)
Induction of EMT or related morphological change [2]: no evidence of induction of EMT or related morphological change

Binding to FLAG-tagged Notch1 ECD (repeats 6-36) [9]: recovery of tagged Notch1 | Binding to Notch1 ECD fragment EGF repeats 10-21 [10]: specifically bound | Binding to Notch1 ECD fragment EGF repeats 22-33 [11]: no detectable binding
B1: β2 ECD: C-terminal polyhistidine-tagged (HIS8) extracellular domain of β2 (SCN2B) secreted from CHO cells, used in conditioned media (protein)
chain: MEVTVPATLNVLNGSDARLPCTFNSCYTVNHKQFSLNWTYQECNNCSEEMFLQFRMKIINLKLERFQDRVEFSGNPSKYDVSVMLRNVQPEDEGIYNCYIMNPPDRHRGHGKIHLQVLMEEPPERDSTVAHHHHHHHH
Phenotypic changes (elongation, enlargement, actin cytoskeleton remodeling) [3]: capable of inducing phenotypic changes | Phenotypic change in response to β2 [4]: no phenotypic change | Migration of SW620 cells across transwell membrane [5]: significant increase in migration | Cell death as percentage of total cells [6]: 10% | E-cadherin protein levels (immunofluoresence and FACS) ([7]; β2 ECD in conditioned media for 48 hours): greatly reduced E-cadherin protein levels | Vimentin protein expression (immunofluorescent staining) ([7]; β2 ECD in conditioned media, from otherwise undetectable levels): substantial increase in vimentin protein expression | Twist1 transcript expression ([8]; 6 hours after treatment with β2 ECD, oscillating at subsequent timepoints): induction of Twist1 transcript | HES1 transcript expression ([8]; at 6 hours after β2 ECD in conditioned media): elevated HES1 transcript | Nuclear Notch1 NICD staining [12]: nuclear NICD was detected
